# According to US20220040304A1, “A COMPOSITION FOR CANCER CELL DEATH AND ITS USE” (Industry-University Cooperation Foundation Hanyang …, priority 2018, published 2022):
# B1: RLuc8.6-KR-LP: fusion protein of RLuc8.6, KillerRed and lead peptide WLEAAYQRFL, 71 kDa (protein)
# chain: MRGSHHHHHHGMASMTGGQQMGRDLYDDDDKDPMASKVYDPEQRKRMITGPQWWARCKQMNVLDSFINYYDSEKHAENAVIFLHGNATSSYLWRHVVPHIEPVARCIIPDLIGMGKSGKSGNGSYRLLDHYKYLTAWFELLNLPKKIIFVGHDWGSALAFHYAYEHQDRIKAIVHMESVVDVIESWMGWPDIEEELALIKSEEGEKMVLENNFFVETLLPSKIMRKLEPEEFAAYLEPFKEKGEVRRPTLSWPREIPLVKGGKPDVVQIVRNYNAYLRASDDLPKLFIESDPGFFYNAIVEGAKKFPNTEFVKVKGLHFLQEDAPDEMGKYIKSFVERVLKNEQEFGGGMLCCMRRTKQVEKNDEDQKISEGGPALFQSDMTFKIFIDGEVNGQKFTIVADGSSKFPHGDFNVHAVCETGKLPMSWKPICHLIQYGEPFFARYPDGISHFAQECFPEGLSIDRTVRFENDGTMTSHHTYELDDTCVVSRITVNCDGFQPDGPIMRDQLVDILPNETHMFPHGPNAVRQLAFIGFTTADGGLMMGHFDSKMTFNGSRAIEIPGPHFVTIITKQMRDTSDKRDHVCQREVAYAHSVPRITSAIGSDEDGGGWLEAAYQRFL
# modifications: pRSET-RLuc8.6-KillerRed-Lead peptide
# B2: KR: first protein KillerRed, ROS-generating protein (superoxide), expressed from pRSET-KillerRed, 31 kDa (protein)
# chain: MRGSHHHHHHGMASMTGGQQMGRDLYDDDDKDPMLCCMRRTKQVEKNDEDQKISEGGPALFQSDMTFKIFIDGEVNGQKFTIVADGSSKFPHGDFNVHAVCETGKLPMSWKPICHLIQYGEPFFARYPDGISHFAQECFPEGLSIDRTVRFENDGTMTSHHTYELDDTCVVSRITVNCDGFQPDGPIMRDQLVDILPNETHMFPHGPNAVRQLAFIGFTTADGGLMMGHFDSKMTFNGSRAIEIPGPHFVTIITKQMRDTSDKRDHVCQREVAYAHSVPRITSAIGSDED
# modifications: pRSET-KillerRed
# notes: first protein KillerRed, ROS-generating protein (superoxide), expressed from pRSET-KillerRed, 31 kDa
# Key:
# MCF-7 cells [1] = assay: Cell death according to incubation time after various Co-h concentrations (SYTOX Green/DAPI); assay type: cell-based, human; conditions: MCF-7, protein 10 μM
# Experimental: MCF-7 cells were seeded at 5×10^5 cells/mL in a 96-well plate (SPL Cell Culture Plate, 96 well (SPL, Cat #30096)), and cultured at 37° C. for 24 hours (overnight). After the culture for 24 hours, the cells were washed with FBS & Phenol red-free media (RPMI, Well Gene., Korea, Cat #LM011-02), and 100 μL of an FBS-free medium containing the purified protein (final concentration: 10 μM) was added, followed by reaction at 37° C. for 24 hours.
# After the reaction for 24 hours, the cells were washed with FBS & Phenol red-free media (RPMI), and then 100 μL of FBS & Phenol red-free media (RPMI) was added again. The reaction was performed by each concentration of the Co-h substrate solution, and then the cells were incubated at 37° C.
# After incubation, 50 μL of SYTOX Green (final concentration: 261 nM) staining DNA of dead cells and DAPI 10 μL of DAPI staining DNA of live cells were added, followed by reaction for 5 minutes. Cell death was confirmed by detecting KillerRed, SYTOX Green and DAPI fluorescence according to the light irradiation time for cells using a confocal microscope.
# MCF-7 cells [2] = assay: Cell death according to presence of serum and protein treatment time (Co-h); assay type: cell-based, human; conditions: MCF-7, protein 10 μM, serum-free media or serum-containing media, Co-h 150 μM
# Experimental: MCF-7 cells were seeded at 5×10^5 cells/mL in a 96-well plate (SPL Cell Culture Plate, 96 well (SPL, Cat #30096)), and cultured at 37° C. for 24 hours (overnight). After the culture for 24 hours, the cells were washed with FBS & Phenol red-free media (RPMI, Well Gene., Korea, Cat #LM011-02), and 100 μL of an FBS-free medium or FBS media (RPMI), containing purified protein (final concentration: 10 μM), was added, followed by reaction at 37° C. over time.
# After the reaction, the cells were washed with FBS & Phenol red-free media (RPMI), 100 μL of FBS & Phenol red-free media (RPMI) containing a Co-h substrate solution (final concentration: 150 μM) and SYTOX Green (final concentration: 261 nM) staining DNA of dead cells was added, followed by reaction at 37° C. for 30 minutes.
# After the reaction, 10 μL of DAPI staining DNA of live cells was added, followed by reaction for 5 minutes. Cell death was confirmed by observing KillerRed, SYTOX Green and DAPI fluorescence using a confocal microscope.
# MDA-MB-231 = assay: Cell death after light irradiation by cell type (SYTOX Green/DAPI); assay type: cell-based, human; conditions: MDA-MB-231, protein 10 μM, light 10 mW/cm^2 for 10 minutes
# Experimental: MDA-MB-231: (Origin: breast, mammary gland, Species: human—person, Growth pattern: monolayer, Media: DMEM with glucose (4.5 g/L), L-glutamine and sodium pyruvate, 90%; heat inactivated fetal bovine serum (FBS), 10%), purchased from Korean Cell Line Bank (KCLB).
# The cells were seeded at 5×10^5 cells/mL in 96-well plates (SPL Cell Culture Plate, 96 well (SPL, Cat #30096)), and cultured at 37° C. for 24 hours (overnight). After the culture for 24 hours, the cells were washed with FBS & phenol red-free media, and 100 μL of FBS & phenol red-free media containing a purified protein (final concentration: 10 μM) was added, followed by reaction at 37° C. for 24 hours. After the reaction for 24 hours, the cells were washed with FBS & phenol red-free media, and 100 μL of FBS & phenol red-free media was added.
# After irradiation with light at 10 mW/cm^2 for 10 minutes, 50 μL (final concentration: 261 nM) of SYTOX Green staining DNA of dead cells was added, followed by reaction at 37° C. for 30 minutes. 10 μL of DAPI staining DNA of live cells was added, followed by reaction for 5 minutes. Cell death was confirmed by observing KillerRed, SYTOX Green and DAPI fluorescence using a confocal microscope.
# [3] = test system: patient breast cancer cell lines (primary cells, triple negative); assay: Cytotoxic effect in patient primary breast cancer cells (triple negative); assay type: cell-based; conditions: protein 10 μM
# Experimental: Cells were seeded at 5×10^5 cells/mL in 96-well plates (SPL Cell Culture Plate, 96 well (SPL, Cat #30096)), and cultured at 37° C. for 24 hours. After the culture for 24 hours, the cells were washed with primary cell media, and 100 μL of primary cell media containing a purified protein (final concentration: 10 μM) was added, followed by reaction at 37° C. for 12 hours.
# After the reaction for 24 hours, the cells were washed with primary cell media, and 100 μL of primary cell media was added. After treatment with a Co-h substrate solution (final concentration: 150 μM) for 5 minutes or irradiation with light at 10 mW/cm^2 for 5 minutes, 50 μL of SYTOX Green (final concentration: 261 nM) staining DNA of dead cells was added, followed by reaction at 37° C. for 30 minutes.
# 10 μL of DAPI staining DNA of live cells was added, followed by reaction for 5 minutes. Cell death was confirmed by fluorescence imaging of SYTOX Green and DAPI fluorescence according to the type of protein treating cells and the light irradiation time using a confocal microscope. Data on patient breast cancer cell lines used in this example are as follows (Table 5).
# [4] = Bioluminescence assay of purified proteins with Co-h substrate (BRET); assay type: physicochemical; conditions: protein 1 μM, Co-h 50 μM, 1×PBS
# Experimental: In addition, 100 μL of buffer (1×PBS) containing the protein purified in Example 1 (final concentration: 1 μM) was dispensed into a 96-well plate (SPL Cell Culture Plate, 96 well (SPL, Cat #30196)), and bioluminescence assay was then performed using 50 μL of buffer (1×PBS) containing a Co-h substrate solution (final concentration: 50 μM), which is a wild-type 2-deoxy derivative. Bioluminescence intensity was immediately measured at a wavelength of 300 to 800 nm using a Thermo Scientific™ Varioskan™ Flash Multimode Reader.
Molecule,cell incubation time after which the number of cells stained with SYTOX Green increased (MCF-7 cells [1]; 25 μM or 50 μM substrate solution for 5 minutes),cell incubation time at which cells stained with SYTOX Green were observed (MCF-7 cells [1]; 150 μM substrate solution for 5 minutes),protein treatment time from which the number of cells stained with SYTOX Green increased (MCF-7 cells [2]),cell death after light irradiation (MDA-MB-231),death of Co-h substrate-added cells compared with light irradiation ([3]; Co-h 150 μM for 5 minutes),cytotoxic effect in patient breast cancer cell lines ([3]; Co-h 150 μM for 5 minutes or light 10 mW/cm^2 for 5 minutes),emission in bioluminescence assay (BRET) [4]
B1,≥ 30 min,approximately 10 minutes,~4 h,killing the three types of cancer cell lines,more effectively shown,a cytotoxic effect was exhibited,
B2,,,,,,,610 nm
